This assay addresses T1, human FcRH5 (FcRH5c/IRTA2c, PRO52387), recombinant protein ('Hu antigen') (human) (UniProt Q96RD9).
T1 sequence: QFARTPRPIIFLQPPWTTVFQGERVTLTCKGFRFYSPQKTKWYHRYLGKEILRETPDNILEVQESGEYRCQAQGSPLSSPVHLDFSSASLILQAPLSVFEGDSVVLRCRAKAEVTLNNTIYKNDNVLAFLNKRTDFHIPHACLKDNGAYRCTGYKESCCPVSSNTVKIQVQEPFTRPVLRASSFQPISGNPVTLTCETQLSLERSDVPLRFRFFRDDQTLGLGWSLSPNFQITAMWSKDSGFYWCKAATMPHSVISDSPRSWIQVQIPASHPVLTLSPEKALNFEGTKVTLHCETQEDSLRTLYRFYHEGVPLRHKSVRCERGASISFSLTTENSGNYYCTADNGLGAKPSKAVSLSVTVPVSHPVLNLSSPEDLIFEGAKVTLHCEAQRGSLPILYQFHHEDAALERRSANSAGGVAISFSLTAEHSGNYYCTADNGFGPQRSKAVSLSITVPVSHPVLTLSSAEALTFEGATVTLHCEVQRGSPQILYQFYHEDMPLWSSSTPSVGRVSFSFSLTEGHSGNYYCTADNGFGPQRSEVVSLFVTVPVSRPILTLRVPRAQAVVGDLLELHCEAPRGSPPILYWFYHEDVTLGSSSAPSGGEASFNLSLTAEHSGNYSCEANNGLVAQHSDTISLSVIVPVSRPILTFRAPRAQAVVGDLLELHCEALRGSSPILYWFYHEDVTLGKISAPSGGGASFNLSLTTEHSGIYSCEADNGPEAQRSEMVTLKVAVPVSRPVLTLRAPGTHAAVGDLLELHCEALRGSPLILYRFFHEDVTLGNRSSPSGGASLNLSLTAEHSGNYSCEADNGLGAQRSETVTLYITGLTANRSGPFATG
Briefly: SPR (Biacore 2000), IgG captured on anti-murine IgG chip, serial dilutions of FcRH injected, 25 C, 1:1 Langmuir fit. (In general: SPR reads the build-up and loss of mass on a sensor chip optically.)

Our source for the Kd values is patent US20100260748A1.

The term Kd denotes a measure of binding affinity in units of concentration.

B1: murine anti-FcRH5-13G9 monoclonal antibody (antibody, from another filing, V domains shown)
VH: EVQLVQSGPELKKPGETVKISCKASGYTFTNYGMNWVKQAPGKGLKWMGWVNTYTGEPTYTDDFKGRFAFSVETSASTVFLQINNLKNEDTATYFCARRSIPYYYAMDYWGQGTSLT
VL: DIVMTQSQKIMSTSVGDRVNVTCKASQNVGSNVAWYHQKPGQSPKALIYSASYRYSGVPDRFTGSGSGTDFTLTISNVQSEDLAEYFCQQYKTWTFGGGTKLEIKR
Turning to B1, the dissociation constant Kd turned out to be 19 nM.
